Molecular target: T1, ヒトCD38 (SPRで注入されたCD38) (human, UniProt P28907 43-300)
T1 sequence: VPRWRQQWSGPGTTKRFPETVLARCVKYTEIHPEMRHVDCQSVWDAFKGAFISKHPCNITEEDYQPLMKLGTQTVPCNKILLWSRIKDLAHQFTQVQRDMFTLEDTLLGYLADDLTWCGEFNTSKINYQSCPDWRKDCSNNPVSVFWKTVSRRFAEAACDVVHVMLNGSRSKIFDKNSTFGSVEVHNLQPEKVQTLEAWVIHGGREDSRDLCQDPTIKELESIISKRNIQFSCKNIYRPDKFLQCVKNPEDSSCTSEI
Assay: SPR (Biacore), antibody captured on protein A, CD38 injected

B1: X02.1 (antibody, human IgG4 S228P, lambda, V domains shown)
VH: QLQLQESGPGLVKPSETLSLTCTVSGGSISSSSYYWSWIRQHPGKGLEWIGYIYYSGSTNYNPSLKSRVTISVDTLKNQISLRLTSVTAADTAVYYCARVGGAGGWPMDVWGQGTTVTVSS
VL: QAVLTQPASLSASPGESARLTCTLPSDINVRYYNIYWYQQKPGSPPRYLLYYYSDSHKGQGSGVPSRFSGSKDVSTNSGILLISGLQSEDEADYYCMTWSSNGSGVFGGGTQLTVLG
notes: X02.1 has no IFN fusion; also called 親抗体X02.1; A02.1 (X355/02-HC-L0-IFN-アルファ(A145D)IgG4) の非融合抗体
In the case of B1, the Kd is reported as 0.378 to 27 nM.

Reference: JP2018087218A (dated 2018)
